Test results: patent US20090018093
Read-outs that look alike come from different tables or passages of the source.

Legend:
[1] = target: T1, Immunoglobulin E (IgE) (Macaca fascicularis) (UniProt A0A7N9DC98); test: inhibition
T1 sequence: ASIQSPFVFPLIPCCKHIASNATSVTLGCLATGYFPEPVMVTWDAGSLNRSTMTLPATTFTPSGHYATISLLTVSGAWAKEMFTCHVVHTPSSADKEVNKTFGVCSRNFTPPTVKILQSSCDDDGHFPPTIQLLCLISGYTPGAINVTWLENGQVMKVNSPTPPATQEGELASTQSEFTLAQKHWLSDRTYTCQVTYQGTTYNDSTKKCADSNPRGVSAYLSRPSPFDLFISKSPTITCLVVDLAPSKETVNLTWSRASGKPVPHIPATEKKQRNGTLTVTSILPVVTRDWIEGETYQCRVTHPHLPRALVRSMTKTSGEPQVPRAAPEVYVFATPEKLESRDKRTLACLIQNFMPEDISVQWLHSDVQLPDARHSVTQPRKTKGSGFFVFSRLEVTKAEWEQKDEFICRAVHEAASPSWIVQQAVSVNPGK

[2] = system: Immunoglobulin E (IgE) (Homo sapiens), P01854-1; test: filter
[3] = system: Immunoglobulin E (IgE) (Homo sapiens), P01854-1; test: inhibition
[4] = target: T2, Immunoglobulin E (IgE), cynomolgus (Macaca fascicularis) (UniProt A0A7N9DC98); test: inhibition; conditions: 2'-F C,U; no inhibition of monkey IgE-FceR1 up to 1 uM
T2 sequence: T1 sequence

[5] = 3' idT, no inhibition of monkey IgE:FceR1a-Fc up to 250 nM
[6] = 2'-OMe C,U, deoxy A,G, FACS, 15 nM IgE
[7] = dRmY: 2'-deoxy A,G, 2'-OMe C,U, 1xPBS, BSA, tRNA, ssDNA, 25 C

Immunoglobulin E (IgE) (Homo sapiens), P01854-1, sequence (P01854 other isoform, or with tags, fused parts or gaps): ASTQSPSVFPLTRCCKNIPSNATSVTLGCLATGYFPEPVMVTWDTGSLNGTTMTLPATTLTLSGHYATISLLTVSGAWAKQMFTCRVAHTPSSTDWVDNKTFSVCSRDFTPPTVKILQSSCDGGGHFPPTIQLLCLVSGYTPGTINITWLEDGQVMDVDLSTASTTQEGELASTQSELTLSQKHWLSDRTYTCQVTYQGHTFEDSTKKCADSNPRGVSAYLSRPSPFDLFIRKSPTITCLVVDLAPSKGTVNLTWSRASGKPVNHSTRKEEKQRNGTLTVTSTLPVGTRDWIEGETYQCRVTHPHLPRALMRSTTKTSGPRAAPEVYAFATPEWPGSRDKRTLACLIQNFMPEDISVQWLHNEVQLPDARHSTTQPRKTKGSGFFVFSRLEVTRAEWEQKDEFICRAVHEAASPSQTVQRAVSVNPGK

GGCGGCAGCTTTATCCGTACCTCCCAGTGGGCTGCTCC [DNA clone SEQ 149 with 3' idT]
IC50 [1, 5]: > 250 nM

AGCCUGGGGACCCAUGGGGGGCU [ARC445]
Kd ([2]; dRmY: 2'-deoxy A,G, 2'-OMe C,U, dPBS Ca/Mg + 0.1 mg/mL BSA, RT, 22 nM in PBS with tRNA + ssDNA (Table 10)): 3 nM | IC50 ([1]; dRmY: 2'-deoxy A,G, 2'-OMe C,U, ELISA, monkey IgE:FceR1a-Fc, human IC50 63 nM in same assay): 161 nM

AGCCUGGGGACCCAUGGGGGGCU [ARC1666]
Kd ([2]; mAmGmCmCmUdGmGdG-s-dGmAmCmCmCmAmU-s-dI-s-mGdI-s-dGdI-s-dGmCmU-3T [2'-OMe 1-5,7,10-15,17,22,23, dI16,dI18,dI20 (inosine, parent base G), phosphorothioate 8/9,15/16,16/17,18/19,20/21 (N linkage letters left out), 3' inverted dT24], dPBS Ca/Mg + BSA, RT, 0.06 nM in Table 23): 0.035 nM | IC50 ([1]; mAmGmCmCmUdGmGdG-s-dGmAmCmCmCmAmU-s-dI-s-mGdI-s-dGdI-s-dGmCmU-3T [2'-OMe 1-5,7,10-15,17,22,23, dI16,dI18,dI20 (inosine, parent base G), phosphorothioate 8/9,15/16,16/17,18/19,20/21 (N linkage letters left out), 3' inverted dT24], ELISA, monkey IgE:FceR1a-Fc, human IC50 5 nM in same assay): 8 nM

AGCCUGGGGACCCAUGGGGGGCU [ARC1335]
Kd ([2]; 2'-OMe C,U,A1,G2,G7,A10,A14,G17, deoxy G6,G8,G9,G16,G18-G21, 3' idT [2'-OMe: 1-5,7,10-15,17,22,23, deoxy: 6,8,9,16,18-21, 24 = 3' inverted dT], dPBS Ca/Mg + BSA, RT): 0.3 nM | IC50 ([3]; 2'-OMe A1,G2,G7,A10,A14,G17 and all C,U, rest 2'-deoxy, 3' idT [2'-OMe at 1,2,3,4,5,7,10,11,12,13,14,15,17,22,23, 2'-deoxy at 6,8,9,16,18,19,20,21, 3' idT left out], FACS, 2.5 nM IgE): 7.3 nM

AGCCUGGGGACCCAUGGGGGGCU [ARC1573]
Kd ([2]; as printed mAmGmCmCmU-s-dG-s-mG-s-dG-s-dGmAmCmCmCmAmU-s-dG-s-mG-s-dG-s-dG-s-dG-s-dG-s-mCmU-3T [2'-OMe: 1-5,7,10-15,17,22,23, deoxy: 6,8,9,16,18-21, phosphorothioate after 5-8,15-21, 24 = 3' inverted dT], dPBS Ca/Mg + BSA, RT): 0.4 nM | IC50 ([3]; 2'-OMe/2'-deoxy mix, PS, 3' idT [PS after 5,6,7,8,15,16,17,18,19,20,21, 2'-OMe/2'-deoxy mix, 3' idT left out], FACS, 2.5 nM IgE): 69.4 nM

AGCCUGGGGACCCAUGGGGGGCU [ARC1667]
Kd ([2]; 2'-OMe/2'-deoxy mix, dI18,dI20, PS as printed, 3' idT [18=dI, 20=dI (G parent), 24=3' inverted dT, phosphorothioate linkage N's left out], DPBS Mg/Ca, 0.1 mg/mL BSA, RT): 0.4 nM | IC50 ([3]; 2'-OMe/2'-deoxy mix, dI18,dI20, PS as printed, 3' idT [18=dI, 20=dI (G parent), 24=3' inverted dT, phosphorothioate linkage N's left out], FACS, 2.5 nM IgE): 2.3 nM

AGCCUGGGGACCCAUGGGGGGCU [ARC1729]
Kd ([2]; 2'-OMe/2'-deoxy mix, dI16,dI18,dI20, PS as printed, 3' idT [16=dI, 18=dI, 20=dI (G parent), 24=3' inverted dT, 2'-OMe at 1-5,7,10-15,17,22,23, phosphorothioate linkage N's left out (5^6, 7^8, 8^9, 15^16, 17^18, 18^19, 19^20, 20^21)], DPBS Mg/Ca, 0.1 mg/mL BSA, RT): 1 nM | IC50 ([3]; 2'-OMe/2'-deoxy mix, dI16,dI18,dI20, PS as printed, 3' idT [16=dI, 18=dI, 20=dI (G parent), 24=3' inverted dT, 2'-OMe at 1-5,7,10-15,17,22,23, phosphorothioate linkage N's left out (5^6, 7^8, 8^9, 15^16, 17^18, 18^19, 19^20, 20^21)], FACS, 2.5 nM IgE): 2.9 nM

GGGAAAAGCGAAUCAUACACAAGAUCCGAGGGUGGGCAAUAGGCUCACAAGGGUUUCGCGUGAUGCUCCGCCAGAGACCAACCGAGAA [rRfY clone SEQ 18]
Kd ([2]; 2'-F C and U, biphasic, KD2 27.3 nM, 1xSHMCK + tRNA, RT): 1.14 nM | IC50 ([3]; 2'-F C,U, ELISA FceR1-Fc, FACS 35 nM (Table 25)): 51.3 nM

GGGGCTACTTTATCCGTCCCTCCTAGTGGGTAGCCCC [ARC475 with 3' idT]
IC50 [1, 5]: > 250 nM

GGGAAAAGCGAAUCAUACACAAGACGUCAGUAAGAUUGAGUGUAUGGUUCCUGGUGGACAAUAAUGGCUCCGCCAGAGACCAACCGAGAA [rRfY clone SEQ 21]
Kd ([2]; 2'-F C and U, biphasic, KD2 27.1 nM, 1xSHMCK + tRNA, RT): 0.183 nM | IC50 ([3]; 2'-F C,U, ELISA FceR1-Fc, FACS 14.4 nM (Table 25)): 3.7 nM

AGCCUGGGGACCCAUGGGGGGCU [ARC1644]
Kd ([2]; 2'-OMe/2'-deoxy mix, dI16,dI20, PS, 3' idT [16=dI, 20=dI (G parent), 24=3' inverted dT, phosphorothioate linkage N's left out (5^6, 7^8, 8^9, 15^16, 17^18, 18^19, 19^20, 20^21)], DPBS Mg/Ca, 0.1 mg/mL BSA, RT): 1.7 nM | IC50 ([3]; 2'-OMe/2'-deoxy mix, dI16,dI20, PS, 3' idT [16=dI, 20=dI (G parent), 24=3' inverted dT, phosphorothioate linkage N's left out (5^6, 7^8, 8^9, 15^16, 17^18, 18^19, 19^20, 20^21)], FACS, 2.5 nM IgE): 5.2 nM

GUUCUGGGGACCCAUGGGGGAAC [ARC442]
Kd ([2]; dRmY: 2'-deoxy A,G, 2'-OMe C,U, 1xPBS, BSA, 1 mg/mL tRNA, ssDNA, 25 C): 174 nM | IC50 [3, 6]: 58.9 nM

AGUUCUGGGGACCCAUGGGGGAACU [ARC443]
Kd [2, 7]: 55 nM | IC50 [3, 6]: 30.2 nM

GGGGCTACTTTATCCGTTCCTCTTAGTGGGTAGCCCC [ARC479]
Kd [2]: 0.4 nM | IC50 ([3]; FACS, 15 nM IgE): 14.4 nM

GGAAUCAUACACAAGACGUCGCCAGAUUGAGUGUCGUGGUUCC [rRfY minimer SEQ 91]
Kd ([2]; 2'-F C and U, KD2 36.9 nM, 1xSHMCK + tRNA): 0.56 nM | IC50 ([3]; 2'-F C,U, FACS, 15 nM IgE): 3.8 nM

GGGAAAAGCGAAUCAUACACAAGACGUCGCCAGAUUGAGUGUCGUGGUU [rRfY minimer SEQ 90]
Kd ([2]; 2'-F C and U, KD2 28.2 nM, 1xSHMCK + 0.1 mg/mL tRNA): 0.33 nM | IC50 [4]: > 1000 nM

GGGAAAAGCGAAUCAUACACAAGAGUCGCUAGAUUGCUAGUGUAUGGUUUAUCUAAAGGCGGCCGCUCCGCCAGAGACCAACCGAGAA [rRfY clone SEQ 13]
Kd ([2]; 2'-F C and U, biphasic, KD2 14.6 nM, 1xSHMCK + tRNA, RT): 0.139 nM | IC50 ([3]; 2'-F C,U, ELISA FceR1-Fc, FACS 10.3 nM (Table 25)): 4.3 nM

AGCCUGGGGACCCAUGGGGGGCU [ARC1382]
Kd ([2]; 2'-OMe/2'-deoxy mix, PS linkages as in Table 17, 3' idT [phosphorothioate linkages (internal N, left out) between 8-9, 18-19, 20-21, 2'-OMe/2'-deoxy mix (positions not given), 3' inverted dT at 24], DPBS Mg/Ca, 0.1 mg/mL BSA, RT): 1.1 nM | IC50 ([3]; 2'-OMe/2'-deoxy mix, PS linkages as in Table 17, 3' idT [phosphorothioate linkages (internal N, left out) between 8-9, 18-19, 20-21, 2'-OMe/2'-deoxy mix (positions not given), 3' inverted dT at 24], FACS, 2.5 nM IgE): 6.9 nM

AGCCUGGGGACCCAUGGGGGGCU [ARC1642]
Kd ([2]; 2'-OMe/2'-deoxy mix, dI16,dI20, PS, 3' idT [16=dI, 20=dI (G parent), 24=3' inverted dT, phosphorothioate linkage N's left out], DPBS Mg/Ca, 0.1 mg/mL BSA, RT): 0.4 nM | IC50 ([3]; 2'-OMe/2'-deoxy mix, dI16,dI20, PS, 3' idT [16=dI, 20=dI (G parent), 24=3' inverted dT, phosphorothioate linkage N's left out], FACS, 2.5 nM IgE): 1.8 nM

AGCCUGGGGACCCAUGGGGGGCU [ARC1641]
Kd ([2]; mAmGmCmCmUdGmGdG-s-dGmAmCmCmCmAmU-s-dG-s-mGdG-s-dGdI-s-dGmCmU-3T [2'-OMe 1-5,7,10-15,17,22,23, dI20 (inosine, parent base G), phosphorothioate 8/9,15/16,16/17,18/19,20/21 (N linkage letters left out), 3' inverted dT24], dPBS Ca/Mg + BSA, RT): 0.4 nM | IC50 ([3]; 2'-OMe/2'-deoxy mix, dI20, PS, 3' idT [dI at 20 (written as parent G), PS after 8,15,16,18,20, 2'-OMe/2'-deoxy mix, 3' idT left out], FACS, 2.5 nM IgE): 1.8 nM

AGCCUGGGGACCCAUGGGGGGCU [ARC1572]
Kd ([2]; 2'-OMe/2'-deoxy mix, PS linkages as in Table 17, 3' idT [phosphorothioate linkages (internal N, left out) between 5-6, 7-8, 8-9, 15-16, 17-18, 18-19, 19-20, 20-21, 2'-OMe/2'-deoxy mix (positions not given), 3' inverted dT at 24], DPBS Mg/Ca, 0.1 mg/mL BSA, RT): 0.3 nM | IC50 ([3]; 2'-OMe/2'-deoxy mix, PS linkages as in Table 17, 3' idT [phosphorothioate linkages (internal N, left out) between 5-6, 7-8, 8-9, 15-16, 17-18, 18-19, 19-20, 20-21, 2'-OMe/2'-deoxy mix (positions not given), 3' inverted dT at 24], FACS, 2.5 nM IgE): 22.8 nM

UAGCCUGGGGACCCAUGGGGGGCUA [ARC446]
Kd [2, 7]: 43 nM | IC50 [3, 6]: 33.8 nM

GGCGGCAGCTTTATCCGTACCTCCCAGTGGGCTGCTCC [DNA clone SEQ 149]
Kd [2]: 0.8 nM | IC50 ([3]; FACS, 15 nM IgE): 55.9 nM

AGCCUGGGGACCCAUGGGGGGCU [ARC1384]
Kd ([2]; as printed mAmGmCmCmUdGmG-s-dGmAmCmCmCmAmU-s-dG-s-mGdG-s-dGdG-s-dGmCmU-3T [2'-OMe: 1-5,7,10-15,17,22,23, deoxy: 6,8,9,16,18-21, phosphorothioate after 8,15,16,18,20, 24 = 3' inverted dT], dPBS Ca/Mg + BSA, RT): 0.5 nM | IC50 ([3]; 2'-OMe/2'-deoxy mix, PS, 3' idT [PS after 8,15,16,18,20, 2'-OMe/2'-deoxy mix, 3' idT left out], FACS, 2.5 nM IgE): 4.4 nM

GGGGCTACTTTATCCGTCCCTCCTAGTGGGTAGCCCC [ARC475]
Kd [2]: 0.5 nM | IC50 ([3]; FACS, 15 nM IgE): 17.1 nM
